Assay results taken from publication PMC11399441.

What was measured:
CHX chase, western blot = settings: control: untreated YTS-1 cells
[1] = western blot, YTS-1 cells; settings: control: untreated YTS-1 cells
[2] = IP and anti-ubiquitin western blot; settings: glycan lost; control: untreated YTS-1 cells

Substance	degradation_or_half_life (CHX chase, western blot; glycan gained)	expression_or_secretion ([1]; glycan gained)	degradation_or_half_life (CHX chase, western blot; glycan lost)	expression_or_secretion ([1]; glycan lost)	other: ubiquitination [2]
C1GalT1 (core1 β-1,3-galactosyltransferase, T-synthase): PugNAc	increases	increases	–	–	–
C1GalT1 (core1 β-1,3-galactosyltransferase, T-synthase): OSMI-1	–	–	decreases	decreases	increases
